Laboratory results published in patent publication EP4630447A2.

Experiments:
Experiment in all cases: sVNT, Table 2
[1] = target: SARS-CoV-2 spike trimer, XBB.1 (SARS-CoV-2)
[2] = target: SARS-CoV-2 spike trimer, BQ.1.1 (SARS-CoV-2)
[3] = target: SARS-CoV-2 spike trimer, XBB.1.5 (SARS-CoV-2)
[4] = target: SARS-CoV-2 spike trimer, XBB (SARS-CoV-2)
[5] = target: SARS-CoV-2 spike trimer, BQ.1 (SARS-CoV-2)

Measured: IC50

Bebtelovimab (antibody)
> 1 µg/mL: all assays above
